Source: PMC3684052
pKd: −log10 of the molar value.

Key:
[1] = biological target: GST-KRIT1 (residues 170–198), wild type (human) (UniProt O00522); experiment: SPR
[2] = biological target: GST-integrin β1 fusion protein (residues 752 to 798), wild type (UniProt P05556); experiment: SPR
Sequence of GST-integrin β1 fusion protein (residues 752 to 798), wild type (P05556 752-798): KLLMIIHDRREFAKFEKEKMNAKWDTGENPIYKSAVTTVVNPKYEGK

Sequence of GST-KRIT1 (residues 170–198), wild type (human) (O00522 170-198): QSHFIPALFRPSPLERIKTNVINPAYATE

pKd [1]: 5.91
pKd [2]: 5.30
Substance: ICAP1 (analyte of the surface plasmon resonance) (from UniProt O14713 1-200) (domain or fragment)
